A word on the Km: it is the concentration of substrate that gives half-maximal velocity.

Data set [1] concerns the target T1, PerB (Caulobacter vibrioides, UniProt O85353). Put plainly: X-ray crystal structure, […] Å. The format is binding.
Data set [2] deals with T1, PerB. Nature of the data set: HPLC, ESI-MS and 1H NMR of the product. It counts as biochemical. The note with it: acetyl CoA 1 mM, HEPES pH 7.5, 10 mM MgCl2, room temperature.
Substrate in data set [3]: C[C@H]1O[C@H](OP(=O)(O)OP(=O)(O)OC[C@H]2O[C@@H](n3cnc4c(=O)[nH]c(N)nc43)[C@H](O)[C@@H]2O)[C@@H](O)[C@@H](O)[C@@H]1N
Put plainly: discontinuous HPLC assay. The format is biochemical, Caulobacter vibrioides. The note with it: pH 8.0, 25 °C, acetyl CoA co-substrate.

Substrate in data set [4]: CC(=O)SCCNC(=O)CCNC(=O)[C@H](O)C(C)(C)COP(=O)(O)OP(=O)(O)OC[C@H]1O[C@@H](n2cnc3c(N)ncnc32)[C@H](O)[C@@H]1OP(=O)(O)O
Nature of the data set: discontinuous HPLC assay. The format is biochemical, Caulobacter vibrioides. The note with it: pH 8.0, 25 °C, GDP-perosamine co-substrate.

Positions count from the first letter of the chain named. Numbers in names are those of the source.

Turning to `CC(=O)N[C@H]1[C@H](O)[C@H](O)[C@@H](OP(=O)(O)OP(=O)(O)OC[C@H]2O[C@@H](n3cnc4c(=O)[nH]c(N)nc43)[C@H](O)[C@@H]2O)O[C@@H]1C` [GDP-N-acetylperosamine], the “X-ray crystal structure, 1.0 Å” value at PerB [1] (with CoA, formed by turnover in the crystal) is “The enzyme turned over, and CoA and GDP-N-acetylperosamine were left bound in the active site”.

For `CC(C)(COP(=O)(O)OP(=O)(O)OC[C@H]1O[C@@H](n2cnc3c(N)ncnc32)[C@H](O)[C@@H]1OP(=O)(O)O)[C@@H](O)C(=O)NCCC(=O)NCCS` [CoA], the “X-ray crystal structure, 1.0 Å” value at PerB [1] (with GDP-perosamine) was “The first was that of the enzyme with bound CoA and GDP-perosamine”. As for `C[C@H]1O[C@H](OP(=O)(O)OP(=O)(O)OC[C@H]2O[C@@H](n3cnc4c(=O)[nH]c(N)nc43)[C@H](O)[C@@H]2O)C(O)CC1N` (some centres unmarked) [GDP-3-deoxyperosamine], the “HPLC, ESI-MS and 1H NMR of the product” value on PerB [2] is on record as “Using GDP-3-deoxyperosamine, we were able to, indeed, show that PerB produces an acetylated form”.

B1: PerB (Caulobacter vibrioides) (protein)
chain: MSASLAIGGVVIIGGGGHAKVVIESLRACGETVAAIVDADPTRRAVLGVPVVGDDLALPMLREQGLSRLFVAIGDNRLRQKLGRKARDHGFSLVNAIHPSAVVSPSVRLGEGVAVMAGVAINADSWIGDLAIINTGAVVDHDCRLGAACHLGPASALAGGVSVGERAFLGVGARVIPGVTIGADTIVGAGGVVVRDLPDSVLAIGVPAKIKGDRS
Take B1: the values for the Michaelis constant (Km) in “discontinuous HPLC assay [3]” and in “discontinuous HPLC assay [4]” were 87 ± 11 µM and 150 ± 20 µM, respectively.

B2: PerB (Caulobacter vibrioides; H141A) (protein)
chain: B1 chain with H141A
B2: the Km in “discontinuous HPLC assay [3]” was found to be 200 ± 10 µM; in “discontinuous HPLC assay [4]”, 110 ± 10 µM.

B3: PerB (Caulobacter vibrioides; H141N) (protein)
chain: B1 chain with H141N
Turning to B3, the Km in the data set “discontinuous HPLC assay [3]” is 150 ± 10 µM; in “discontinuous HPLC assay [4]”, 94 ± 17 µM.

B4: PerB (Caulobacter vibrioides; D142N) (protein)
chain: B1 chain with D142N
As for B4, the Michaelis constant (Km) in the data set “discontinuous HPLC assay [3]” was 110 ± 10 µM; in the data set “discontinuous HPLC assay [4]”, 59 ± 7 µM.

Values taken from paper PMC4249942 (Biochemistry, 2012).
